Consider five molecules from publication PMC11763261.

The labels stand for the following.
T1: CTB5-MBP (OsHox14, HD-Zip I) (Oryza sativa (japonica; KMXBG or Towada …, UniProt Q7XI85 1-240)
T1 sequence: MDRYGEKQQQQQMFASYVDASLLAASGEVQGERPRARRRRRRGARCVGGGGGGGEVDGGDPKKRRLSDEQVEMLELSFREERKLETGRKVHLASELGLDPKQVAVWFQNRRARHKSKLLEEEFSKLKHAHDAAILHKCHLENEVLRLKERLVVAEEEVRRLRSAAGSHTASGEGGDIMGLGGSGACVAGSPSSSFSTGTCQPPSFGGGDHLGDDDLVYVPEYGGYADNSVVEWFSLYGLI

B1: OsGA3ox1 promoter probe WT (dsDNA)
DNA 1: ATAGGAAAAAAAATTAATAATTACTTAAATTTTTTGAA
DNA 2: TTCAAAAAATTTAAGTAATTATTAATTTTTTTTCCTAT
B2: OsGA2ox6 promoter probe mutant (dsDNA)
DNA 1: CGGGGATGTGCAGTTCCCCCCATTTTGTATAAGATT
DNA 2: AATCTTATACAAAATGGGGGGAACTGCACATCCCCG
B3: OsGA3ox1 promoter probe mutant (dsDNA)
DNA 1: ATAGGAAAAAAAATTGGGGGGGGCTTAAATTTTTTGAA
DNA 2: TTCAAAAAATTTAAGCCCCCCCCAATTTTTTTTCCTAT
B4: OsGA2ox6 promoter probe WT (dsDNA)
DNA 1: CGGGGATGTGCAGTTTAATTAATTTTGTATAAGATT
DNA 2: AATCTTATACAAAATTAATTAAACTGCACATCCCCG
B5: PYL9 promoter probe WT (AH1 motif) (dsDNA)
DNA 1: AAAATATATTCAATTATTGATTTGAAACTA
DNA 2: TAGTTTCAAATCAATAATTGAATATATTTT

The series addresses T1, CTB5-MBP (OsHox14, HD-Zip I). Put plainly: EMSA. In general terms: A gel shift assay detects complexes by their altered migration in electrophoresis.
For B1, the binding result is “binds”.

Regarding B2, the binding result is listed as “no binding”.

With B3, the binding result is reported as “no binding”.

Regarding B4, the binding result is “binds”.

B5: the binding result is on record as “binds”.
